Measurements as given in the DeepSol protein solubility set.

Assay: soluble on expression in E. coli; label from the status in PepcDB or PDB records

Row | Sequence | soluble on expression in E. coli
1 | MGSDKIHHHHHHEIFSEITTDNYYQNSNNIYAALVNNYAKAFSTGWSDARYFLQEVTADQLMIPTRGKHGYNGGEYVRLHEHKWTVEENFVYNGWAAPFQGIALCNNTLSDFENLDFSTFKLTEETKNEYIAELRALRVWNYMFLIDFFRHVPIVTDIEEVKAQSTPLEVFNFMESELLAILPDLPKNRGVSRFDQAGVASILVRLYLNAEKWIGISKYDECEQMAQAILDGKYGEYSIDPDYRGPFRSGINGYRSKENIMEFAIKKNYFEASWLYNMWMHYQDRYSLDNDWQGWNGGNLAPSRDLYGNLYQDKLGMPFEKFPDGDIRKKAFRVISNDGDYEGFFLMGTQYKFDYEKGYGFTDEVITGTEEYNGKPLVYVDQVGRFSEGETGLAKGSHVIYGEENTGYRLIKFPWLPQSKDLFQMNSIPEIRLAEIYYSLAECKYRSGDKIGAARLLDVVRKRYYKAEDWSKFSYESNISKLTDDEFVDELGREFIGERHRRIDLIRWNRFSEGAWWDKTPDATNQDVFPIPYRALNANPLLKQTTAGF | not soluble
2 | MGSDKIHHHHHHMNLEDIFSILPEKIEREVKRISDYNNLQEIRIKVNKPLIIQIGKKEIISNYIATKEDLKKTFNVMSGYSIYSVEDELRQGYITIKGGHRVGICGDCVLEENKIKTIKNISSLNIRICKEVTGCSNSIMKKIVYGNTVLNTIIISPPNCGKTTLLRDITRNISYGINSIQFRGKKVCVIDERSEIGACLNGVNQMDIGIRTDILDNCPKSIGIMMAIRSMAPEVIICDEIGTYDDIKSILTAVNCGVKLITTIHGFGIEDLNSRDVFKDAIKNNVFERAIVLSGRSGVGTVEYIYDFYTKERERGL | not soluble
3 | TNRVADLTIYIIRQGVLDRRYLGEIERLYTENKFTNMCLVLNDVSYSGSRGTYGYGYGYGYGNKEYGKQGKKLRRRSAKKTKKFKIGPMKKS | not soluble
4 | MTFELKYTDRSYLPDQFKAISGNPPVEWKVTNNLVEYPEALRYMQERVENILAQNAHEQVWLLEHPSLYTAGTSAKKKDLLTPHLFPVYEAGRGGEFTYHGPGQRIAYIMLDLKRRRQDIRAFISALEEWIIQMLAKFNIKGERREDRVGVWVQRHSCQSTQNSLYSEDKIAAIGIRVRKWVSFHGVSINVDPNLAHYSGIVPCGITNHGVTSFLDLGLPTKMHDIDIALKQSFEQIFGPIIDIS | not soluble
5 | MGSDKIHHHHHHMAQQPLAYRMRPQRLEDIVGQQDLVAPGKIIARMVAAKLLSSMILYGPPGTGKTSIASAIAGSTQYAFRKLNAATDSKKDLQIVAEEAKMSGTVILLLDEIHRLDKTKQDFLLPHLESGRIVLIGATTENPYININPAIRSRTQIFEVHPLTPDDIKIALHRALTDTENGLGKLPIDLNTEALNFIAGATNGDLRSALNGLELAAQSTPAANDDRIHITLAVAEACFQRKALMGDKDGDAHYDVISAFQKSIRGSDTDAALHYLAQLVAAGDLPAICRRLMVIAYEDIGMANLPAAARTVQAVQAAQQLGLPEGRIPLADAVIELCLSPKSDSGISAIDAALADVLNGHNGAVPDHLKDAHYAGAKKLGHGTDYKYPHNFPNDWVKQQYLPDTLKNAEYYHPKTNGRFETQLAQQYRRLLTANRH | not soluble
6 | MSLESIQSSLKHMTGNRSFEKQFTQLKEAVFRSPHVQLFLEEHPSLSPITLEQGLSKLYEYQKEQSHCAHCPGLQKCPNLMKGYQPTLYVERDSLELSYSPCPLKEEEEREKKKRSLIRSLYIPKEILEAKFDDVESEPGRSIASHRALEFALSAKPGEDGMGLYLYGKFGVGKTFLMGAIANELKDRGIDSTIVYVPDFFRELKQSIGDGTFQQKLDFVKNAQVLIFDDIGAETMTSWVRDDVLGVILQYRIMEKLPTLFTSNYDYDELEEHLAYNDKSGTELLKAKRVMERIRHYTVSVMVQGQNRREHQSEGHHHHHH | soluble
7 | MADLLDKIMGSSSSNRIPKRDNRMNQDKDEPTSKRSAPMFSTPKSTTPIGRDSFATMDTMNVQMNMFPVDIKDMPHKIQRFQVDVIVCSSNGKQINANLGVLAAKGDVNSHNRRLAQYYIMRTVHDKLLVKFSGKSHHFLAYDCAATLYLPEGVYTGDDQEEVTLTIDDFPKEEWKFVSKLSRRKDDSYLVVLKPAGFVYTQGEVAQEEANRMELTRIIEIVTSQKLNNEDYLQFGNATFPRLSPPHSEPDAISEIRSGFAKVSRLSQNGGGKAFMTVDTKISPFYKDTSVIKFSSNKLSEMKGGGGGRGGYGRSDSRDSRGGYRGGRSDSRDFRGVYGNRGGNDRYRDESRGRRDMYDSRRDSGSSNGADYSPSDAAELEHAFGERGNTKRCIEEALKGLDVECTHLKGNLIRVSSIAENNAENTSFMMKDDKGEREVTVAEYFLLQYNIKLKYPRLPLVVSKRFKHESFFPMELLRIAPGQRIKVNKMSPTVQSAMTGRNASMPQHHVKLVQDILRDNLKLEQNKYMDAFGIKLMSTEPIQMTAKLLPPAQIKFKGQTYMPDMSRPAFRTQDKFVEPARIRKIGIVVFDNCIQMRQAEDFCDKLSNFCRDNGITVEKDSRDWSIRELNSSDSVAIQNLMKKWLDDRVDILVGIAREKKPDVHDILKYFEESIGLQTIQLCQQTVDKMMGGQGGRQTIDNVMRKFNLKCGGTNFFVEIPNAVRGKAVCSNNETLRKKLLEHVQFIGFEISHGASRTLFDRSRSQMDGEPSVVGVSYSLTNSTQLGGFTYLQTQKEYKLQKLDEFFPKCVRSYKEHSKTLPTRIVIYRVGAGEGNFNRVKEEVEEMRRTFDKIQPGYRPHLVVIIAQRASHARVFPSCISGNRATDQNIPSGTCVENVLTSYGYDEFILSSQTPLIGTVRPCKYTILVNDAKWSKNELMHLTYFRAFGHQVSYQPPSVPDVLYAAENLAKRGRNNYKIHQRYVNLQAVENRIIKDHSELINEDMREELAAAIVDEMSVAMNGMTIPKRNFWA | not soluble
8 | MGSDKIHHHHHHMTTQFACSGIELELFRYPSQQASNLQAWDAADEHLVKYLIDTEITATTTAILNDNFGALTCALTMQYPHSELLVETDAKTSLLGYQQNLLHNKLASTNIHWLNSRETLPQNIQLVLMKLPKNLHYFGQQLARLSTVLPAGTQILIGAKAKSINPALLASIEKNLGPASASLAWKKTRVISCISDGKKRSLAKAVSWNVDELKLTISNLANVFAANKLDIGARIMLDNMPKGEFKHIIDLGCGNGILGLHAKQCYPNAQIHFVDDSDMAIASAKHNWQANELDTPSQDLQSQDPQTEQMPQAFFHWDDCLSNLPADVEPDLVICNPPFHQGEAITDHIAWQMFVDAHKRLKKGGLLHIVGNRHLAYHVKINRIFKNCTTVASNGKFVILQAIK | not soluble
9 | MSLSNRAGEILIVEDSPTQAEHLKHILEETGYQTEHVRNGREAVRFLSLTRPDLIISDVLMPEMDGYALCRWLKGQPDLRTIPVILLTILSDPRDVVRSLECGADDFITKPCKDVVLASHVKRLLSGVKRTEERYSRESITLAFGNEGHHHHHH | soluble
10 | MLRYLLLSMYLFYIKKRRCHHFFIIVNIILSVSMQNDNLPFKITACVYKIV | not soluble
11 | MQEIIFIDEGSFPTPEGVTREWVQGAAENRDEDEKLFSIIREAFQIKIDAGVQVPTYPQFRDMIGQFFDIIKDEKNCHEPYVLKEERATILELEAIDEVAKQYKIETGKTLEVRVCIAGPTDMYYQAFGATAFVDVYDILAKDIEKFIKQAFKTAKNFKIKVIALDEIGLGLNDKIQFSDDEIISALTVASTFARQQGADVEIHVYSPLKYELICETPINVIGFEYAGNPSYIDLLDRKVLEDSDAYAGVGISRTDIFSLISIVNEKYGINAWKDKEYMQKIVTELETPDIIKKRLETAYSVLGDRIKYANPDCGLAFWPDQELAFRLLENTAKAVNEFNAEGIINKAAALEHHHHHH | not soluble
12 | EAPLLYGDSSPEIVLVGHGSTYGVIKEIVDIFSKDKKIAMMHFSQIYPFPERDRFDYIEFLKNANLVISVENNATGQFAKLMRAETGFEFARQILKYDGRPFTIEKLKEEIDACL | not soluble
13 | DGPGDGFTILSSKSLVLGQKLSLTQSDISHIGSMRVEGIVHPTTAEIDLKEDIGKALEKAGGKEFLETVKELRKSQGPLEVAEAAVSQSSGLAAKFVIHCHIPQWGSDKCEEQLEETIKNCLSAAEDKKLKSVAFPPFPSGRNCFPKQTAAQVTLKAISAHFDDSSASSLKNVYFLLFDSESIGIYVQEMAKL | soluble
14 | MSLCRWAAYHGTPIFLEDVISRPGHSLIAQSAHAEECKTATNGDGFGVAWYDARPEPGLYRDVYPAWSDPNLRAVAHHVRSGLFLSHVRASTGSCISRNNCHPFAARRWCFMHNGQVGGFEAFRKQADMAIADEFYTYRKGSTDSEVLFLLALSEGLEHDPHGALARAIARLEGLSRAHGTTPHMRLSAAFSDGQTLYAARYSSDHIAPSVYYRYSHARQGWAVVSEPLETDEGDWTELRPGRMLTIGAEGAAERDFAPADLGRAAEGHHHHHH | soluble
15 | QSVLTQPPSVSAAPGQKVTISCSGSTSNIGNNYVSWYQQHPGKAPKLMIYDVSKRPSGVPDRFSGSKSGNSASLDISGLQSEDEADYYCAAWDDSLSEFLFGTGTKLTVLGQPKAAPSVTLFPPSSEELQANKATLVCLISDFYPGAVTVAWKADSSPVKAGVETTTPSKQSNNKYAASSYLSLTPEQWKSHKSYSCQVTHEGSTVEKTVAPTECS | soluble
16 | MSLSDPVKVFLADNLRRYDAAVLVMSLPGFYRISADLMIEKNHDVPVVVVDDAGRFAVAASAGHAGGSDELAAYIAGIIDGQAVITDGIESGGRVSVEKIARSLLATIANPECIIPVNAAIANGEHVPVIFRSKKRSMLRRLFAESSDEKHGYAIVLADEPGEDANTCYLIPDDISIGIGFNSSADAELISACLERFLEEAGLAWEDIDYVSSIKDLPDVSIIRKGTRFVKFDPADIRDIDPEMLTHVSDKARDVFGVPGVAEPCAIRSLGPGSKIFLPFRSCGRSVTLAAARREGHHHHHH | soluble
17 | MFSYHELITIESVARLGSFSQAADELHKVPSAISYTIKSVEDRLTVVLFTRLHRRVELTAAGTYFVDQARKLLKDMEEIRFNTQRVANGWQQSVSVALDNVVRENSVNQLVRDFYATFPDIELQLTMEVFNGVWDALMTGRADIGIGATATIPIGGDFSYRPMGELAWDFIVSINHPLASFEHDIPNEELVKYPAICLEDTSQILPKRSTWLLDNQRRLIVPNWHSAEQCFIDGLGVGVIPNHRAKRLLETGQVISKKIEHHIAPSPCCLAWNNNNQSVAIQWLLDYLGDSDKLNSEWLKEF | not soluble
18 | SKLNERSVAHYALSDSPADHMGFLRTWGGPGTPPTPSGTGRRCWFVLKGNLLFSFESREGRAPLSLVVLEGCTVELAEAPVPEEFAFAICFDAPGVRPHLLAAEGPAAQEAWVKVLSRASFGYMRLVVRELESQLQDARQSLALQRRSSWKSVASRCKPQAPNHRAAGLENGHCLSKDSSPVGLVEEAGSRSAGWGLAEWELQGPASLLLGKGQSPVSPETSCFSTLHDWYGQEIVELRQCWQKRAQGSHSKCEEQDRP | soluble
19 | MLYDKWDVIMKKVQDIVEAIPKNGTLSIVQRDLESNGDKFALKNPPQSFNLEHHHHHH | not soluble
